Here are results for 1 substance from publication doi:10.1101/2020.06.24.163345.

This test deals with SisCmr7-β (Cmr7 subunit of the S. islandicus Cmr-β complex), dimer (S. islandicus (REY15A)). The test is described as follows: cryo-EM structure.

On to “SisCmr7-β (Cmr7 subunit of the S. islandicus Cmr-β complex), dimer (natural protein)”, for which the stoichiometry N (usually a count of units in the complex or per binding partner) was 2.
